From publication PMC6682002 (ACS Omega, 2019)

B1: recombinant ClpP1 (rClpP1) of Leptospira interrogans, LIC11417 (enzyme)
chain: not shown
B2: recombinant ClpP2 (rClpP2) of Leptospira interrogans, LIC11951 (enzyme, UniProt Q72R01 1-197, looked up)
chain: MPETEKIAEVFEELTGSKISKNFLDHRKIFLWGPVTDESSKDLVGKLLYLEMKDPGKKITFYINSPGGVVTSGMTVFDTIKMISSPVHTVCMGMAASMGSVLLAAGTKGERSIWPNGKVMIHQPSIGGQIVAPATDLKIHAEEILKTKTKLNQILADACGHPISKLEEDTDRDYYMDAEEAIKYGIVDKLATKIDFN

Legend:
native gel or EMSA = biological target: the molecule itself; experiment: native gel or EMSA
[1] = biological target: B2; experiment: ITC
cross-linking = biological target: the molecule itself; experiment: cross-linking
SEC = biological target: the molecule itself; experiment: SEC
[2] = biological target: B1; experiment: ITC

| Binder | binding result (native gel or EMSA) | dH [1] | stoichiometry N [1] | stoichiometry N (native gel or EMSA) | stoichiometry N (cross-linking) | stoichiometry N (SEC) | Kd [2] |
| --- | --- | --- | --- | --- | --- | --- | --- |
| rClpP1S98A, catalytic serine mutant of recombinant ClpP1 of Leptospira interrogans (enzyme) not shown | binds | – | – | – | – | – | – |
| B1 | – | -30200 ± 2640 cal^–1 mol^–1 | 0.945 ± 0.05 | 21 | 7 | 14 | – |
| B2 | – | – | – | 14 | 7 | – | 2.02 ± 0.1 µM |
| rClpP2S97A, catalytic serine mutant of recombinant ClpP2 of Leptospira interrogans (enzyme, UniProt Q72R01 1-197, looked up) MPETEKIAEVFEELTGSKISKNFLDHRKIFLWGPVTDESSKDLVGKLLYLEMKDPGKKITFYINSPGGVVTSGMTVFDTIKMISSPVHTVCMGMAAAMGSVLLAAGTKGERSIWPNGKVMIHQPSIGGQIVAPATDLKIHAEEILKTKTKLNQILADACGHPISKLEEDTDRDYYMDAEEAIKYGIVDKLATKIDFN | binds | – | – | – | – | – | – |
